In the Human Domainome abundance scans (Beltran et al. 2025):
± gives the uncertainty stated by the source.

B1: Transitional endoplasmic reticulum ATPase, residues 26 to 106; numbered along this chain, P55072 (parent)
chain: LIVDEAINEDNSVVSLSQPKMDELQLFRGDTVLLKGKKRREAVCIVLSDDTCSDEKIRMNRVVRNNLRVRLGDVISIQPCP

Variants of: B1
Experiment: abundance fitness (aPCA) (normalised: wild type 0, dead -1); higher = more abundant; growth selection in yeast, the domain comes from the species named
Settings: Homo sapiens

| Variant | abundance fitness |
| --- | --- |
| R61V | -0.005 ± 0.059 |
| R61C | 0.005 ± 0.16 |
| R61A | 0.059 ± 0.067 |
| E55K | -0.03 ± 0.11 |
| E55A | -0.019 ± 0.061 |
| E55S | 0.01 ± 0.056 |
| E55C | 0.002 ± 0.068 |
| E55P | -0.075 ± 0.083 |
| E55L | 0.003 ± 0.059 |
| E55V | -0.053 ± 0.046 |
| E55H | -0.041 ± 0.11 |
| E55D | -0.174 ± 0.13 |
| E55M | -0.143 ± 0.097 |
| E55G | 0.018 ± 0.043 |
| E55Y | -0.029 ± 0.099 |
| E55W | -0.148 ± 0.058 |
| E55F | -0.052 ± 0.09 |
| E55T | -0.03 ± 0.12 |
| E55Q | 0.003 ± 0.084 |
| R68M | 0.01 ± 0.087 |
| R68Y | 0.274 ± 0.23 |
| R68C | -0.114 ± 0.14 |
| R68D | -0.064 ± 0.12 |
| R68N | -0.123 ± 0.14 |

| Variant | abundance fitness |
| --- | --- |
| R68L | -0.033 ± 0.057 |
| R68W | -0.169 ± 0.097 |
| R68V | -0.124 ± 0.063 |
| R68H | -0.009 ± 0.13 |
| R68Q | -0.119 ± 0.1 |
| R68S | 0.068 ± 0.073 |
| R68E | 0.047 ± 0.084 |
| R68K | 0.122 ± 0.12 |
| R68T | -0.14 ± 0.09 |
| R68F | -0.165 ± 0.14 |
| R68I | -0.588 ± 0.21 |
| R68P | -0.891 ± 0.17 |
| R58E | -0.376 ± 0.098 |
| R58V | -0.521 ± 0.1 |
| R58I | -0.089 ± 0.2 |
| R58L | -0.037 ± 0.072 |
| R58Y | -0.093 ± 0.4 |
| R58T | -0.515 ± 0.13 |
| R58H | -0.246 ± 0.25 |
| R58W | -0.625 ± 0.15 |
| R58F | -0.216 ± 0.19 |
| R58P | -0.927 ± 0.32 |
| R58S | -0.253 ± 0.062 |
| R58C | -0.255 ± 0.13 |

| Variant | abundance fitness |
| --- | --- |
| R58M | -0.068 ± 0.095 |
| R58G | -0.156 ± 0.056 |
| R58K | -0.013 ± 0.12 |
| R58Q | -0.185 ± 0.14 |
| N65E | -0.02 ± 0.17 |
| N65R | -0.044 ± 0.054 |
| N65H | -0.038 ± 0.11 |
| N65M | -0.054 ± 0.1 |
| N65V | -0.131 ± 0.063 |
| N65A | -0.026 ± 0.067 |
| N65Y | -0.14 ± 0.14 |
| N65G | -0.066 ± 0.056 |
| N65Q | -0.075 ± 0.095 |
| N65W | -0.157 ± 0.068 |
| N65L | -0.074 ± 0.051 |
| N65S | 0.025 ± 0.062 |
| N65P | -0.926 ± 0.21 |
| N65F | -0.116 ± 0.07 |
| N65C | -0.106 ± 0.095 |
| N65D | 0.017 ± 0.11 |
| N65T | -0.07 ± 0.1 |
| N66I | -0.151 ± 0.1 |
| N66Y | -0.176 ± 0.13 |
| N66V | -0.104 ± 0.06 |

| Variant | abundance fitness |
| --- | --- |
| N66W | -0.255 ± 0.092 |
| N66T | 0.007 ± 0.11 |
| N66S | -0.044 ± 0.061 |
| N66E | 0.042 ± 0.084 |
| N66C | -0.374 ± 0.27 |
| N66L | -0.012 ± 0.066 |
| N66P | -0.952 ± 0.2 |
| N66F | -0.263 ± 0.083 |
| N66H | -0.314 ± 0.14 |
| N66G | -0.021 ± 0.051 |
| N66M | -0.04 ± 0.14 |
| N66A | -0.071 ± 0.069 |
| N66K | 0.086 ± 0.091 |
| D54P | -0.116 ± 0.072 |
| D54I | -0.106 ± 0.14 |
| D54H | -0.073 ± 0.18 |
| D54T | 0.218 ± 0.095 |
| D54E | -0.062 ± 0.079 |
| D54F | -0.112 ± 0.099 |
| D54K | 0.08 ± 0.085 |
| D54V | -0.016 ± 0.049 |
| D54W | -0.289 ± 0.07 |
| D54A | -0.076 ± 0.058 |
| D54G | -0.075 ± 0.044 |

| Variant | abundance fitness |
| --- | --- |
| D54N | -0.072 ± 0.089 |
| D54M | 0.006 ± 0.12 |
| D54R | -0.205 ± 0.038 |
| D54C | -0.089 ± 0.11 |
| D54Q | -0.279 ± 0.1 |
| C52G | -0.197 ± 0.047 |
| C52P | -0.624 ± 0.13 |
| C52Y | -0.439 ± 0.12 |
| C52T | -0.027 ± 0.071 |
| C52L | 0.018 ± 0.059 |
| C52I | -0.091 ± 0.2 |
| C52A | -0.253 ± 0.069 |
| C52H | -0.452 ± 0.26 |
| C52V | -0.062 ± 0.054 |
| C52S | -0.261 ± 0.066 |
| C52D | -0.433 ± 0.11 |
| C52F | -0.495 ± 0.27 |
| C52Q | -0.026 ± 0.095 |
| C52R | -0.192 ± 0.059 |
| C52W | -0.728 ± 0.11 |
| C52M | -0.016 ± 0.092 |
| C52K | -0.334 ± 0.14 |
| C52E | -0.416 ± 0.085 |
| R70A | 0.043 ± 0.062 |

| Variant | abundance fitness |
| --- | --- |
| R70D | -0.091 ± 0.13 |
| R70T | 0.017 ± 0.085 |
| R70G | 0.049 ± 0.056 |
| R70I | -0.242 ± 0.19 |
| R70S | 0.036 ± 0.062 |
| R70F | -0.184 ± 0.1 |
| R70L | 0.037 ± 0.06 |
| R70N | -0.101 ± 0.12 |
| R70H | -0.152 ± 0.11 |
| R70P | -0.327 ± 0.094 |
| R70Q | -0.157 ± 0.12 |
| R70E | 0.106 ± 0.092 |
| R70V | -0.076 ± 0.064 |
| R70M | -0.077 ± 0.092 |
| V63R | -0.445 ± 0.066 |
| V63C | 0.031 ± 0.09 |
| V63T | 0.072 ± 0.12 |
| V63W | -0.342 ± 0.1 |
| V63I | 0.029 ± 0.14 |
| V63E | -0.223 ± 0.14 |
| V63N | -0.276 ± 0.17 |
| V63D | 0.029 ± 0.12 |
| V63G | -0.253 ± 0.058 |
| V63P | -0.896 ± 0.29 |

| Variant | abundance fitness |
| --- | --- |
| V63L | 0 ± 0.061 |
| V63F | -0.061 ± 0.14 |
| V63M | -0.095 ± 0.11 |
| V63K | -0.433 ± 0.11 |
| V63A | 0.054 ± 0.073 |
| N60W | -0.899 ± 0.24 |
| N60A | -0.009 ± 0.075 |
| N60I | -0.681 ± 0.32 |
| N60R | -0.325 ± 0.073 |
| N60P | -0.046 ± 0.079 |
| N60L | -0.756 ± 0.13 |
| N60C | -0.182 ± 0.16 |
| N60S | 0.085 ± 0.074 |
| N60V | -0.418 ± 0.071 |
| N60M | -0.552 ± 0.16 |
| N60H | -0.045 ± 0.19 |
| N60F | -0.889 ± 0.16 |
| N60E | -0.266 ± 0.11 |
| N60Y | -0.811 ± 0.39 |
| N60D | -0.077 ± 0.092 |
| N60T | -0.019 ± 0.08 |
| N60Q | -0.307 ± 0.1 |
| N60G | -0.065 ± 0.082 |
